Experimental data as given in US20250207107A1, “LUCIFERASE MUTANT AND USE THEREOF” (DGI TECH (QING DAO) CO., LIMITED, priority 2022, published 2025).

Tests used:
Assay type in all cases: biochemical
[1] = Activity assay of Pxluc expressed in eukaryotic cells; conditions: expressed in eukaryotic cells (Expi-CHO); FIG. 12
Method: (§1) Protein concentration was accurately determined using the BCA quantification kit (Thermo Scientific™ Pierce™ BCA Protein Assay Kit), and luciferase was diluted to 1 μg/ml with diluent (50 mM Tris-HCl pH 8.0, 100 mM NaCl, 0.1% (v/v) Tween-20) and 10 μL was added to black 96-well plates, which was then added with 90 μL of the respective substrates, coelenterazine (purchased from Baiaolaibo), fluorinated coelenterazine, and coelenterazine derivatives ZS2 and ZS26 that were diluted to 100 μM with the same solution, and the luminescence intensity was read from the luminescence module with a microplate reader. The substrate specificity of the mutants was compared with the activity ratio of ZS2/F-CTZ and ZS26/F-CTZ. Table 10 below lists results of the mutation sites and substrate specificity of ZS26/F-CTZ and ZS2/F-CTZ of the dominant mutant of Pleuromamma xiphia luciferase.
(§2) pEE12.4 Pxluc WT and mutant pEE12.4 Pxluc P26-95, as well as the coupled products SA-Pxluc WT and SA-Pxluc P26-95 were subjected to the activity assay according to the method described in Example 5.

[2] = Protein activity assay for Pleuromamma xiphia luciferase expressed in prokaryotic cells; conditions: protein expressed in OrigamiB (DE3) or BL21 (DE3), Gluc as control, FIG. 6
Method: The concentration of protein was accurately determined using a BCA quantification kit (Thermo Scientific™ Pierce™ BCA Protein Assay Kit), and the above purified luciferase was diluted with diluent (50 mM Tris-HCl pH 8.0, 100 mM NaCl, 0.1% (v/v) Tween-20). The protein expressed by the pET28a-Pxluc WT plasmid was diluted to 12 μg/ml, and the proteins expressed by the pCold WT Pxluc plasmid and pCold WT-NS Pxluc plasmid were diluted to […]. 10 μL of each protein was added to a black 96-well plate, which was then added with 90 µL of the respective substrates, coelenterazine (purchased from Baiaolaibo), fluorinated coelenterazine, and coelenterazine derivatives ZS2, ZS26 (the structural formula of each compound is shown in FIG. 5) that were diluted to 100 µM with the same solution, and the luminescence intensity was read from the luminescence module with a microplate reader. Gluc expressed in OrigamiB (DE3) competent cells was known to have good luminescence activity, and thus it was used as a control group. […] Therefore, the luminescence activity of Pleuromamma xiphia luciferase without a signal peptide to coelenterazine is similar to that of Gluc to coelenterazine. […] Subsequent experiments were performed with Pleuromamma xiphia luciferase without a signal peptide.

[3] = Substrate specificity assay of purified luciferase, ZS26/F-CTZ luminescence ratio; conditions: for ZS26 luminescence intensity to F-CTZ luminescence intensity: purified prokaryotically expressed luciferase 1 μg/ml, substrates 100 μM, microplate reader
Method: as §1, §2

[4] = Substrate specificity assay of purified luciferase, ZS2/F-CTZ luminescence ratio; conditions: for ZS2 luminescence intensity to F-CTZ luminescence intensity: purified prokaryotically expressed luciferase 1 μg/ml, substrates 100 μM, microplate reader
Method: as §1, §2

ZS26 luminescence intensity to F-CTZ luminescence intensity [3]	substrate specificity for ZS26/F-CTZ ([3]; text summary of Table 10, FIG. 7)	ZS2 luminescence intensity to F-CTZ luminescence intensity [4]	substrate specificity for ZS2/F-CTZ ([4]; text summary of Table 10, FIG. 8)	Molecule	activity of catalyzing the substrates ZS2, ZS26 [1]	luminescence value / luminescence activity to coelenterazine ([2]; listed as Pleuromamma xiphia luciferase without a signal peptide)	luminescence value / luminescence activity to coelenterazine ([2]; listed as pCold WT NS Pxluc)
				Pxluc WT: wild-type luciferase for eukaryotic expression, with signal peptide, 6×His tag and Avitag (SEQ ID NO: 28) (protein, misc_feature 1..585 pEE12.4) MYIKVWFGLACLSLVLAHHHHHHGSQPTENKQESHIVDSDLDGDRGRKLPGKKLPIEVLKIMEANARRAGCTRGCLICLSKIKCTAKMKRYIPGRCHTYEGDKSIGQGGIGGPIVDIPEIIGFKNMEPMDQFIAQVDLCADCTTGCLKGLANVRCNDLLKKWLPDRCAGFADKIQNEVDSIKGMAGDRGSGLNDI	had the activity of catalyzing the substrates		
1.77	about 1.77 fold	3.56	about 3.56 fold	pCold WT-NS Pxluc: wild type Pleuromamma xiphia luciferase without a signal peptide, SEQ ID NO: 4, prokaryotic expression (protein, WT-NS Pxluc) QPTENKQESHIVDSDLDGDRGRKLPGKKLPIEVLKIMEANARRAGCTRGCLICLSKIKCTAKMKRYIPGRCHTYEGDKSIGQGGIGGPIVDIPEIIGFKNMEPMDQFIAQVDLCADCTTGCLKGLANVRCNDLLKKWLPDRCAGFADKIQNEVDSIKGMAGDR		higher activity	highest luminescence value
23.647		21.808		P25-1: Pxluc mutant without signal peptide, G98L, Q99R (SEQ ID NO: 2 numbering) (protein, signal peptide removed; (WT Pxluc)) MYIKVWFGLACLSLVLAQPTENKQESHIVDSDLDGDRGRKLPGKKLPIEVLKIMEANARRAGCTRGCLICLSKIKCTAKMKRYIPGRCHTYEGDKSILRGGIGGPIVDIPEIIGFKNMEPMDQFIAQVDLCADCTTGCLKGLANVRCNDLLKKWLPDRCAGFADKIQNEVDSIKGMAGDR			
